# Data taken from patent publication US20200362049A1 (BLACK BELT THERAPEUTICS, published 2020).
# B1: Daratumumab (antibody, human IgG1, kappa, V domains shown)
# VH: EVQLLESGGGLVQPGGSLRLSCAVSGFTFNSFAMSWVRQAPGKGLEWVSAISGSGGGTYYADSVKGRFTISRDNSKNTLYLQMNSLRAEDTAVYFCAKDKILWFGEPVFDYWGQGTLVTVSS
# VL: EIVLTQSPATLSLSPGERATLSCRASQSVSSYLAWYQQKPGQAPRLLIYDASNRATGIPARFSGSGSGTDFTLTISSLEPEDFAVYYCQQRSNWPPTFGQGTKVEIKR
# Key:
# [1] = molecular target: T1, Human CD38 on cells (human, UniProt P28907 1-300); assay: cell-based or functional assay
# [2] = molecular target: T1, Human CD38 on cells; assay: cell-based or functional assay; remark: listed apart in the source
binder,measurement,setting,value
B1,"ADCC, target Daudi cells: EC50 ug/ml DARA",[1],0.0139 µg/mL
same,"CDC, 10% complement, target Daudi cells: EC50 ug/ml DARA (experiment 10)",[2],0.11 µg/mL
same,"CDC, 10% complement, target Daudi cells: EC50 ug/ml DARA (experiment 11)",[2],0.07 µg/mL
